The text below walks through data of patent US9750814B2, “Polypeptides to inhibit epstein barr viral protein BHRF1 and B cell lymphoma family proteins” (priority 2014, dated 2017).

For data set [1], the target named is T1, Bfl-1 (Homo sapiens, UniProt Q16548, C4S).
T1 sequence (Q16548 1-153 C4S): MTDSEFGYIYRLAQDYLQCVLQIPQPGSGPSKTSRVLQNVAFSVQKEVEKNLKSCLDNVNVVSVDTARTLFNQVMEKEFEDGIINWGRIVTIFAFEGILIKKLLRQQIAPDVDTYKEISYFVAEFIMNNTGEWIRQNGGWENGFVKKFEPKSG
The data set is described as follows: Bio-layer interferometry (BLI), immobilized Bfl-1. Further details: Bfl-1 a.a; made in house; host or cells: E. coli BL21* (DE3). The note with it: lower bound in μM. The class given is binding. The text has this: (§1) 11-175 (NP_065129.1), Mcl-1 a.a. […] For later BLI analysis, Bcl-B and Bfl-1 were genetically fused to C-terminal maltose-binding-protein with an avi-6his tag for improved solution properties. Codon usage was optimized for E. coli expression. […] The genes for individually-tested designed proteins were assembled from oligos (Hoover and Lubkowski, 2002) and cloned into pET29b (NdeI-XhoI sites) with C-terminal 6his tags for purification from E. coli, or cloned into PETCON (NdeI-XhoI sites; (Fleishman et al., 2011)) for yeast surface expression. Alternative tags were added using PCR methods. Point mutations were made by overlapping PCR (Procko et al., 2013). Error-prone PCR with an average error rate of 1.3 amino acid substitutions per clone used GeneMorph II Random Mutagenesis (Agilent Technologies).
(§2) Purified avi-6his-tagged ligands (20 μM) in reaction buffer (250 mM potassium glutamate, 20 mM Tris-Cl [pH 7.5], 50 mM bicine [pH 8.3], 10 mM ATP, 10 mM MgOAc, 100 μM d-biotin) were enzymatically biotinylated with 150 U/μl BirA (Avidity) at room temperature overnight, followed by purification with NiNTA-agarose and SEC. Biotinylated ligands were stored at 4° C. in 150 mM NaCl, 20 mM Tris-Cl (pH 7.5), 1 mM DTT, 0.02% sodium azide.
(§3) Data were collected on an Octet RED96 (Forte Bio) and processed using the instrument's integrated software. […] Biosensors were dipped in solutions containing the analyte of interest to measure association, and transferred back to empty binding buffer for monitoring dissociation. Kinetic constants were determined from the mathematical fit of a 1:1 binding model.
In general terms: Biolayer interferometry detects binding as a change in optical thickness at a sensor tip.

The format of data set [2] is physicochemical. To be noted: for unfolding behaviour in guanidinium hydrochloride: loss of CD signal at 222 nm. Here is the method:
CD spectra were recorded with a Model 420 spectrometer (AVIV Biomedical) or a J-1500 Circular Dichroism Spectrometer (JASCO). Unless stated otherwise, proteins were at 20 μM in PBS and data were collected at 25° C.

The target of data set [3] is T2, Bcl-B (Homo sapiens, UniProt Q9HD36).
T2 construct: Bcl-B a.a; 11-175 (NP_065129.1); made in house; host or cells: E. coli BL21* (DE3)
T2 sequence (Q9HD36 11-175): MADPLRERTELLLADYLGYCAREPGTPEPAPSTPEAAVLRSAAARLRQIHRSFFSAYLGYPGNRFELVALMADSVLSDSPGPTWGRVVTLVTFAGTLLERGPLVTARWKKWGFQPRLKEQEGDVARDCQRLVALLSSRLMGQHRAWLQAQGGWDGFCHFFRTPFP
Briefly: Bio-layer interferometry (BLI), immobilized Bcl-B. The class given is binding. The note with it: lower bound in μM.
Description: as §1, §2, §3

Data set [4] concerns the target T3, Mcl-1 (Homo sapiens, UniProt Q07820).
T3 construct: Mcl-1 a.a; made in house; host or cells: E. coli BL21* (DE3)
Briefly: Bio-layer interferometry (BLI), immobilized Mcl-1. The format is binding. To be noted: BLI; for Kd: lower bound in μM.
Description: as §1, §2, §3

Data set [5] concerns the target BHRF1 (Epstein-Barr virus, UniProt P03182). Here is the method: Proteins (20 nmol each) were injected in a 200 μl loop in line with a Superdex-75 10/300 column (GE Healthcare) and separated with running buffer (20 mM Tris-Cl pH 7.5, 150 mM NaCl, 1 mM DTT) at room temperature.
Data set [6] has as its system mitochondria from six EBV-positive and four EBV-negative cancer lines. Briefly: Cytochrome c release from isolated mitochondria, panel of cancer lines. The class given is cell-based, human. The note with it: 10 μM. The protocol:
(§4) Cells (˜10^9) were equilibrated in 5 ml of homogenization buffer (0.25 M sucrose, 1 mM EGTA, 10 mM HEPES/NaOH, 0.5% BSA, pH 7.4, Roche Complete protease inhibitors) for 5 min. Samples were kept on ice or at 4° C. until assayed. Cells were homogenized under N2 pressure (400 psi) in a steel disruption vessel (Parr Instrument Company) for 10 min, then centrifuged (750 g) for 10 min to remove intact cells. Supernatant was centrifuged again (12,000 g) for 12 min to collect mitochondria. The pellet was resuspended in 300 μl wash buffer (0.25 M sucrose, 1 mM EDTA, 10 mM Tris/HCl pH 7.4). Proteins at the indicated concentrations were incubated with mitochondria (25 μg mitochondrial protein based on BCA assay, Sigma) in 50 μl final volume of experimental buffer (125 mM KCl, 10 mM Tris-MOPS pH 7.4, 5 mM glutamate, 2.5 mM malate, 1 mM K-PO4, 10 μM EGTA-Tris pH 7.4) for 30 min at room temperature. Reaction solutions were centrifuged (18,000 g) for 10 min at 4° C. and cytochrome c release was quantified using a Cytochrome c ELISA kit (Life Technologies). Complete cytochrome c release was quantified by treatment with 0.5% Triton-X100.
(§5) Ramos, Ramos-AW, Daudi, Raji, DOHH2, JVM-2, and JVM-13 were grown in RPMI 1640 containing L-glutamine and 25 mM HEPES supplemented with 1% penicillin-streptomycin (GIBCO) and 10% fetal bovine serum (FBS, Invitrogen). […]

Data set [7] has as its system mitochondria isolated from Ramos-AW (EBV-positive) and Ramos (EBV-negative) cells. The data set is described as follows: Cytochrome c release from isolated mitochondria, Ramos-AW versus Ramos. The format is cell-based, human. The note with it: 30 min. Here is the method: as §4, §5
The target in data set [8] is T4, Bcl-2 (Homo sapiens, UniProt P10415).
T4 construct: human Bcl-2 a.a; made in house; host or cells: E. coli BL21* (DE3)
The data set is described as follows: Bio-layer interferometry (BLI), immobilized Bcl-2. The format is binding.
Description: as §1
Purified avi-6his-tagged ligands (20 μM) in reaction buffer (250 mM potassium glutamate, 20 mM Tris-Cl [pH 7.5], 50 mM bicine [pH 8.3], 10 mM ATP, 10 mM MgOAc, 100 μM d-biotin) were enzymatically biotinylated with 150 U/μl BirA (Avidity) at room temperature overnight, followed by purification with NiNTA-agarose and SEC. […]
Data were collected on an Octet RED96 (Forte Bio) and processed using the instrument's integrated software. […] Kinetic constants were determined from the mathematical fit of a 1:1 binding model.

A value given as a limit tells only on which side of the number the result lay.

T3 sequence (Q07820 172-327): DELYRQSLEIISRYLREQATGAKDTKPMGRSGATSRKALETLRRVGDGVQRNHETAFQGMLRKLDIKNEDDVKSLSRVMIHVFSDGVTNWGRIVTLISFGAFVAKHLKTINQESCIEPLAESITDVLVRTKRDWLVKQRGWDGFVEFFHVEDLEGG
Sequence of BHRF1 (P03182 1-161): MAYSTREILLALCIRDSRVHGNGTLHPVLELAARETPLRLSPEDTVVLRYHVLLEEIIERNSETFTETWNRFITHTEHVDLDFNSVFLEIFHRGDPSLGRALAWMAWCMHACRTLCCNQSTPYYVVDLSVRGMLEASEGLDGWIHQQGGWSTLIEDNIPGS
T4 sequence (P10415 1-207): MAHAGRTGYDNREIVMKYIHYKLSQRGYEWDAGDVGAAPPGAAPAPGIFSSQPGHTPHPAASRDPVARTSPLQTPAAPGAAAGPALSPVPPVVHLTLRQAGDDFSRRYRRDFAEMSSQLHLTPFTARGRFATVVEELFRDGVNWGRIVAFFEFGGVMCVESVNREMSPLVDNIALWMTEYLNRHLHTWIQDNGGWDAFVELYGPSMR

B1: X-CDP07: SEQ ID NO: 47; target Bcl-xL (protein)
chain: ADPKKVLDKAKDRAENVVRKLKKELEELYKEARKLDLTQEMRDRIRLAAIAARIAAFGDIFHAIMEALEEARKLKKAGLVNSQQLDELKRRLEELDEEAAQRAEKLGKEFELKLEY
As a reminder, the Kd is the free concentration of one partner at which half of the binding sites on the other are occupied at equilibrium, for simple one-to-one binding. B1: the Kd in data set [1] was greater than 50 µM.

B2: M-CDP02: SEQ ID NO: 29; target Mcl-1 (protein)
chain: ADPKKVLDKAKDQAENRVRELKQELEELYKEARKLDLTQEERRKLEESYIAAMLRAIGDIFNAIMQAKNEADKLKKAGLVNSQQLDELRRRLEELRKEASLKAEDYGREFQEKLEY
Take B2: in data set [2], the “unfolding behaviour in guanidinium hydrochloride” value is recorded as “unfolded over broad denaturant concentration ranges”.

B3: WINDI: SEQ ID NO: 265; target Bcl-w (protein)
chain: DPKKVFDELKDRAENNVRRLKQKLEELYKEARKKDLTQEEREKLKTKYKTAMQLAALAAEGDIMNALLKARKLHKNGQVNEQQLEELARRLMELAKEAFQKAKDYANEFKYKLEY
On to B3, for which the equilibrium dissociation constant (Kd) in data set [1], in data set [3] and in data set [4] was greater than 25 µM each time.

B4: M-CDP05: SEQ ID NO: 32; target Mcl-1 (protein)
chain: ADPKKVLDKAKDQAENRVRELKQKLEELYKEARKLDLTQEERHRLETKALSALLAAIGDILDAIMQALQEAAKLKKAGLVNSQQLDELKRRLEELRKEASRKARDYGREFWLKLDY
Turning to B4, the “unfolding behaviour in guanidinium hydrochloride” value in data set [2] is on record as “unfolded over broad denaturant concentration ranges”.

B5: XINDI: SEQ ID NO: 4; target Bcl-XL (protein)
chain: ADPKKVLDKAKDRAENVVRKLKKELEELYKEARKLDLTQEMRDRIRRTAIAARFQAHGDIFHAIKHAKEEARKLKKAGLVNSQQLDELKRRLRELDEEAEQRAEKLGKEFRLKLEY
For B5, the Kd in data set [1], in data set [3] and in data set [4] was greater than 50 µM in each case. Besides, in data set [2], the “protein stability relative to the original computational design” value is recorded as “slightly to moderately decreased”.

B6: BbpD04.2: BbpD04.1 with four mutations: I21L, Q79L, I84Q and H104R (protein)
chain: ADWKKVLDKAKDIAENRVRELKQKLEEFYKEAMKLDLTQEMRRKLMLRWIAAMLMAIGDIFNAIRQAKQEADKLKKAGLVNSQQLDELKRRLEELKEEASRKCRDYGREFQLKLEY
Consider B6, for which, in data set [5] (in solution), the “elution by SEC when mixed with BHRF1” value is on record as “higher molecular weight (MW) complex”. Further, in data set [5] (protein alone), the “state by SEC after purification from E. coli” value is “monodisperse and monomeric”.

B7: BINDI N62S: BINDI variant with N62S (protein)
chain: ADPKKVLDKAKDQAENRVRELKQKLEELYKEARKLDLTQEMRRKLELRYIAAMLMAIGDIYSAIRQAKQEADKLKKAGLVNSQQLDELKRRLEELKEEASRKARDYGREFQLKLEY
With B7, the cytochrome c release entry in data set [6] (Raji and JVM-2) is “low levels of cytochrome c release”; in data set [6] (Ramos-AW, Daudi, Granta 519, JVM-13), “high cytochrome c release”. In addition, the “cytochrome c release, Ramos-AW compared with Ramos mitochondria” value in data set [7] is “enhanced apoptotic activity against EBV-positive Ramos-AW”. Further, the “change of affinity for Mcl-1 relative to BINDI” value in data set [4] was “diminished six-fold”.

B8: 2-INDI: SEQ ID NO: 3; target Bcl-2 (protein)
chain: ADPKKVLDKAKDEAENRVRELKQRLEELYKEARKLDLTQEMRQELVDKARAASLQANGDIFYAILRALAEAEKLKKAGLVNSQQLDELKRRLEELAEEARRKAEKLRDEFRLKLEY
Take B8: the “fold weaker affinity for the next tightest binding BCL2 family protein (target Bcl-2)” value in data set [8] is reported as > 2,000 fold. The Kd in data set [1], in data set [3] and in data set [4] was greater than 75 µM each time. Further, the “protein stability relative to the original computational design” value in data set [2] is listed as “slightly to moderately decreased”.
